Test results: patent publication US8362216B2, “Method of detection using antibodies that specifically bind hedgehog-derived polypeptides” (The Johns Hopkins University School of Medicine, priority 1994, dated 2013)

Assays:
[1] = system: neural and cement gland marker gene expression; experiment: Xenopus animal (blastula) cap explants / Keller sandwiches from RNA-injected embryos, RT-PCR of marker genes; format: cell-based
Description: cDNAs encoding full-length Xenopus hedgehogs, or encoding amino terminal or carboxy terminal domains linked to secretory leader sequences were transcribed in vitro to yield translatable messenger RNA. The synthetic messenger RNAs, and control mRNAs, were microinjected into the animal poles of cleavage stage Xenopus embryos, which were allowed to develop to the blastula stage, at which time the animal cap explants were prepared from the upper one fourth of the embryo. These blastula cap explants were then cultured in vitro in physiological saline in the presence or absence of the transforming growth factor beta family member, recombinant human activin A. All explants were allowed to develop until control embryos had grown to neurula stage, or to tadpole stage. Importantly, blastula caps left untreated differentiate from ectoderm into atypical epidermis. Blastula caps treated with activin differentiate into mesodermal and neural cell types. Thus, the question was whether hedgehog, or its proteolytic derivatives, would change the differentiation of cells away from becoming epidermis, and into another cell type. A second question was whether hedgehog can work with activin to alter the normal response of the tissue to either factor by itself.
Explants were then extracted to yield mRNA by methods commonly used by those of skill in the art, which was used as template with reverse transcriptase to yield cDNA. The cDNA was then used as template with various sets of primers for PCR for specific genes, reverse-trahscriptase-polymerase chain reaction, or RT-PCR. […] Thus, the darker bands correspond to a greater level of the specific mRNA.
(A) Isolation of dorsal explants from injected embryos for the preparation of Keller sandwiches (Keller and Danilchik, 1988; Doniach, et al, 1992; redrawn from Doniach, 1993). (B) Keller sandwiches were made from uninjected (lanes 1 and 2) and X-bhh-injected (lanes 3 and 4) embroys, total RNA was isolated when control embryos reached stage 20, and RT-PCR was used to analyze the expression of XAG-1 and neural markers. XAG-1 is a cement gland marker, XANF-2 is an anterior pituitary marker, Otx-A is a forebrain marker, En-2 demarcates the midbrain-hindbrain boundary, Krox-20 marks rhombomeres 3 and 5 of the hindbrain and X/Hbox-6 is a spinal cord marker. N-CAM is a general neural marker whose expression is not restricted along the anteroposterior axis. […] Note that expression of XAG-1 and anterior neural markers is stimulated by X-bhh treatment, whereas expression of posterior neural markers is suppressed.

[2] = biological target: T1, in-vitro translated Hh protein (Drosophila melanogaster, UniProt Q02936); experiment: Proteinase inhibitor studies on auto-proteolysis of in vitro translated Hh protein; format: biochemical; conditions: inhibitor added to translation reaction
T1 construct: The full length form of the hh protein (F) migrates with a mobility corresponding to a relative molecular mass of 46 kD; made in house; host or cells: cell-free: TNT coupled transcription-translation system (Promega)
T1 sequence (Q02936 1-471): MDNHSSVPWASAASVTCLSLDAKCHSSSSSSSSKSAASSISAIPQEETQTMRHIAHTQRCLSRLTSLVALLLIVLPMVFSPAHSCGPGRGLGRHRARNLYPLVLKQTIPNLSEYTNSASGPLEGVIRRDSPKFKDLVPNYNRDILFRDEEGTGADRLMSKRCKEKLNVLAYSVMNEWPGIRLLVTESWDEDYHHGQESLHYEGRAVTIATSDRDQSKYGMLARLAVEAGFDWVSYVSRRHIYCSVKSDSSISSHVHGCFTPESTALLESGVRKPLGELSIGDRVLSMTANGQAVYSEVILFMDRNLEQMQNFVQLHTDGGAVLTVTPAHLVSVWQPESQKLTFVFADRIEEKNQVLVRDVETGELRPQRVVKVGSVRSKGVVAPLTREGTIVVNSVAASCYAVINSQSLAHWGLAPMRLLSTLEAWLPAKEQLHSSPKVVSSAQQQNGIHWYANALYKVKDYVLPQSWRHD
Description: In some cases the effectiveness of an inhibitor was assayed by determining if addition of an inhibitor to a completed translation reaction will inhibit the self-processing that normally continues to occur.

[3] = Solubility and proteolytic stability of purified Hh carboxy-terminal fragments; format: physicochemical; conditions: purified protein
Description: Protein expression and purification: Drosophila melanogaster Hh protein in which most of the amino-terminai signaling domain and signal sequence have been replaced by a hexa-histidine tag (His6Hh-C25) was expressed as previously described (Porter et al., 1995). SeMet His6Hh-C25 was prepared by expression in E. coli strain B834 (DE3) pLysS, a methionine auxotroph, and growth in minimal media as previously described (Leahy et al., 1994). This His6-taggcd protein was purified on a Ni^++-NTA agarose column and autocleavage stimulated by addition of 50 mM DTT. After removal of the DTT by dialysis, the cleaved protein was passed over a Ni^++-NTA agarose column and the Hh carboxy-terminal domain, Hh-C25, collected in the column run through. Hh-C25 was subjected to limited proteolysis by overnight incubation with 1:500 (w:w) subtilisin (Boehringer Mannheim) at 4° C. A protease-stable fragment of approximately 17 kDa, Hh-C17, was identified by SDS-PAGE and purified by anion-exchange chromatography utilizing a Mono-Q column (Pharmacia). The amino- and carboxy-terminal residues of Hh-C17 were determined to be Cys-258 and Ser-408, respectively, by mass spectral analysis of cyanogen bromide-cleaved fragments. Mass spectral analysis was performed as previously described (Porter et al., 1996a).
Drosophila melanogaster Hh in which the signal sequence and most of the amino-terminal signaling domain have been replaced by a hexahistidine tag was expressed in E. coli as previously described (Porter et al., 1995). Following purification with Ni^++-NTA agarose, this protein cleaves itself in vitro in the presence of either DTT or cholesterol to liberate the 25 kDa Hh-C fragment (Hh-C25, residues Cys-258 to Asp-471). […] All residues absolutely conserved in Hh-C homologues (Porter et al., 1996a), including the nematode sequences, are contained in Hh-C17. To determine if Hh-C17 retained autoprocessing activity, a mutant version of His-tagged Hh-C containing a termination codon at residue position 409 (His6Hh-C17) was expressed and assayed for autocleavage in the presence of DTT and cholesterol.

auto-proteolysis = experiment: In vitro translation of wild-type and mutant Hh proteins (mapping of auto-proteolysis); format: biochemical, Drosophila; zebrafish

## prolactin [reference compound]
[1]
  Induction of pituitary gene XANF1B: does not lead to this elevated level of pituitary gene

## CC(C)C[C@H](NC(=O)[C@H]1O[C@@H]1C(=O)O)C(=O)NCCCCN=C(N)N [E-64]
[2]
  Inhibition of auto-proteolysis of in-vitro translated Hh protein: do not block

## CC(=O)N[C@@H](CC(C)C)C(=O)N[C@@H](CC(C)C)C(=O)N[C@H](C=O)CCCNC(=N)N [leupeptin]
[2]
  Inhibition of auto-proteolysis of in-vitro translated Hh protein: do not block

## Hh-C17: ~17 kDa subtilisin-stable fragment of Hh-C25, residues Cys-258 to Ser-408
[3]
  Solubility: improved solubility
  Stability to proteolysis: protease-stable

## a, anti-trypsin: proteinase inhibitor, probably α1-antitrypsin
[2]
  Inhibition of auto-proteolysis of in-vitro translated Hh protein: do not block

B1: Hh-C25: 25 kDa Drosophila Hh-C fragment, residues Cys-258 to Asp-471 (protein)
chain: CFTPESTALLESGVRKPLGELSIGDRVLSMTANGQAVYSEVILFMDRNLEQMQNFVQLHTDGGAVLTVTPAHLVSVWQPESQKLTFVFADRIEEKNQVLVRDVETGELRPQRVVKVGSVRSKGVVAPLTREGTIVVNSVAASCYAVINSQSLAHWGLAPMRLLSTLEAWLPAKEQLHSSPKVVSSAQQQNGIHWYANALYKVKDYVLPQSWRHD
[3]
  Solubility: poorly soluble in the absence of detergents
  Stability to proteolysis: susceptible to further proteolytic breakdown when concentrated to 1 mg/ml or greater

B2: H273A: zebrafish twhh protein with H273A mutation (protein, UniProt Q90419 27-416, looked up, variant H273A)
Tiggy-winkle hedgehog protein: CGPGRGYGKRRHPKKLTPLAYKQFIPNVAEKTLGASGKYEGKITRNSERFKELIPNYNPDIIFKDEENTNADRLMTKRCKDKLNSLAISVMNHWPGVKLRVTEGWDEDGHHLEESLHYEGRAVDITTSDRDKSKYGMLSRLAVEAGFDWVYYESKAHIHCSVKAENSVAAKSGGCFPGSGTVTLGDGTRKPIKDLKVGDRVLAADEKGNVLISDFIMFIDHDPTTRRQFIVIETSEPFTKLTLTAAALVFVGNSSAASGITATFASNVKPGDTVLVWEDTCESLKSVTVKRIYTEEHEGSFAPVTAHGTIIVDQVLASCYAVIENHKWAHWAFAPVRLCHKLMTWLFPARESNVNFQEDGIHWYSNMLFHIGSWLLDRDSFHPLGILHLS
auto-proteolysis
  Auto-proteolysis (processing) of in vitro translated protein: blocked

B3: noggin: independent neural inducer (protein, UniProt P49011 20-222, looked up)
Noggin: RIDQGGCQHYLHIRPAPSENLPLVDLIEHPDPIYDPKEKDLNETLLRTLMVGHFDPNFMATILPEERLGVEDLGELDLLLRQKPSGAMPAEIKGLEFYEGLQSKKHRLSKKLRRKLQMWLWSQTFCPVLYTWNDLGTRFWPRYVKVGSCYSKRSCSVPEGMVCKAAKSMHLTILRWRCQRRVQQKCAWITIQYPVISECKCSC
[1]
  Induction of general neural gene NCAM: induces the general neural gene, NCAM
  Induction of pituitary gene XANF1B: able to induce pituitary gene and forebrain gene

B4: soybean trypsin inhibitor: proteinase inhibitor (protein, UniProt P01070 25-205, looked up)
Trypsin inhibitor A: DFVLDNEGNPLENGGTYYILSDITAFGGIRAAPTGNERCPLTVVQSRNELDKGIGTIISSPYRIRFIAEGHPLSLKFDSFAVIMLCVGIPTEWSVVEDLPEGPAVKIGENKDAMDGWFRLERVSDDEFNNYKLVFCPQQAEDDKCGDIGISIDHDDGTRRLVVSKNKPLVVQFQKLDKESL
[2]
  Inhibition of auto-proteolysis of in-vitro translated Hh protein: do not block

B5: H270A: zebrafish shh protein with H270A mutation (protein, UniProt Q92008 24-418, looked up, variant H270A)
Sonic hedgehog protein: CGPGRGYGRRRHPKKLTPLAYKQFIPNVAEKTLGASGRYEGKITRNSERFKELTPNYNPDIIFKDEENTGADRLMTQRCKDKLNSLAISVMNHWPGVKLRVTEGWDEDGHHFEESLHYEGRAVDITTSDRDKSKYGTLSRLAVEAGFDWVYYESKAHIHCSVKAENSVAAKSGGCFPGSALVSLQDGGQKAVKDLNPGDKVLAADSAGNLVFSDFIMFTDRDSTTRRVFYVIETQEPVEKITLTAAALLFVLDNSTEDLHTMTAAYASSVRAGQKVMVVDDSGQLKSVIVQRIYTEEQRGSFAPVTAHGTIVVDRILASCYAVIEDQGLAHLAFAPARLYYYVSSFLFPQNSSSRSNATLQQEGVHWYSRLLYQMGTWLLDSNMLHPLGMSVNSS
auto-proteolysis
  Auto-proteolysis (processing) of in vitro translated protein: blocked

B6: activin: recombinant human activin A, transforming growth factor beta family member (protein, UniProt P08476 311-426, looked up)
Inhibin beta A chain: GLECDGKVNICCKKQFFVSFKDIGWNDWIIAPSGYHANYCEGECPSHIAGTSGSSLSFHSTVINHYRMRGHSPFANLKSCCVPTKLRPMSMLYYDDGQNIIKKDIQNMIVEECGCS
[1]
  Induction of pituitary gene XANF1B: also express the pituitary gene
